{"source": "patent US20030162275A1", "about": "“Dog flavin-containing monooxygenase” (priority 2002, published 2003)", "molecules": {"B1": {"name": "SEQ ID NO: 2: Amino acid sequence of a variant of dog wild-type FMO1 (protein, listed as Canis familiaris)", "chain": "MAKRVAIVGAGVSGLASIKCCLEEGLEPTCFERSDDLGGLWRFTEHVEGGRASLYKSVVSNSCKEMSCYSDFPFPEDYPNYVPNSQFLEYLKMYANRFSLLKCIRFKTKVCKVTKCPDFTVTGQWEVVTQHEGKQESAIFDAVMVCTGFLTNPHLPLDCFPGINTFKGQYFHSRQYKHPDIFKDKRVLVIGMGNSGTDIAVETSRLAKKVFLSTTGGAWVMSRVFDSGYPWDVVFMTRYQNMFRNSLSTPIVTWLMARKMNSWFNHANYGLVPEDRTQLREPVLNDELPGCIITGKVLIKPSIKEVKENSVVFNNTPKEEPIDIIVFATGYTFAFPFLDETVVKVENGQASLYKYIFPVHLPKPTLAVIGLIKPLGSMIPTGETQARWAVRVLKGINKLPPQSAMTEEVNARKENKPSGFGLCYCKALQSDYITYIDELLTNINAKPNLFSLPLTDPRLALTTFFGPCTPYQFRLTGPGKWKGARNAILTQWDRTFKVTKTRIVQESPTPFASLLKLLSLLALLMAIFQIFL"}, "B2": {"name": "SEQ ID NO: 4: Amino acid sequence of another variant of dog wild-type FMO1 (protein, listed as Canis familiaris)", "chain": "MAKRVAIVGAGVSGLASIKCCLEEGLEPTCFERSDDLGGLWRFTEHVEEGRASLYKSVVSNSCKEMSCYSDFPFPEDYPNYVPNSQFLEYLKMYANRFSLLKCIRFKTKVCKVTKCPDFTVTGQWEVVTQHEGKQESAIFDAVMVCTGFLTNPHLPLDYFPGINTFKGQYFHSRQYKHPDILKDKRVLVIGMGNSGTDIAVETSRLAKKVFLSTTGGAWVMSRVFDSGYPWDMVFMTRFQNMFRNSLPTPIVTWLMARKMNSWFNHANYGLVPEDRTQLREPVLNDELPGCIITGKVLIKPSIKEVKENSVVFNNTPKEEPIDIIVFATGYTFAFPFLDETVVKVENGQASLYKYIFPVHLPKPTLAVIGLIKPLGSMIPTGETQARWAVRVLKGINKLPPQSAMTEEVNARKENKPSGFGSCYCKALQSDYITYIDELLTNINAKPNLFSLLLTDPRLALTIFFGPCTPYQFRLTGPGKWKGARNAILTQWDRTFKVTKTRIVQESPTPFASLLKLLSLLALLMAIFQIFL"}, "B3": {"name": "SEQ ID NO: 6: Amino acid sequence of dog wild-type FMO1, expressed using a baculovirus expression system in insect cells (protein, listed as Canis familiaris)", "chain": "MAKRVAIVGAGVSGLASIKCCLEEGLEPTCFERSDDLGGLWRFTEHVEEGRASLYKSVVSNSCKEMSCYSDFPFPEDYPNYVPNSQFLEYLKMYANRFSLLKCIRFKTKVCKVTKCPDFTVTGQWEVVTQHEGKQESAIFDAVMVCTGFLTNPHLPLDCFPGINTFKGQYFHSRQYKHPDIFKDKRVLVIGMGNSGTDIAVETSRLAKKVFLSTTGGAWVMSRVFDSGYPWDMVFMTRFQNMFRNSLPTPIVTWLMARKMNSWFNHANYGLVPEDRTQLREPVLNDELPGCIITGKVLIKPSIKEVKENSVVFNNTPKEEPIDIIVFATGYTFAFPFLDETVVKVENGQASLYKYIFPVHLPKPTLAVIGLIKPLGSMIPTGETQARWAVRVLKGINKLPPQSAMTEEVNARKENKPSGFGLCYCKALQSDYITYIDELLTNINAKPNLFSLLLTDPRLALTIFFGPCTPYQFRLTGPGKWKGARNAILTQWDRTFKVTKTRIVQESPTPFASLLKLLSLLALLMAIFLIFL"}}}
{"assay": "Enzyme activity assay (MPT S-oxidase activity of expressed FMO1 polypeptides in Sf-9 cell microsomes)", "format": "biochemical, dog", "settings": "25 ug Sf-9 cell microsomal protein, 1 mM NADPH, 0.1 M tricine, 37° C., 10 minutes, HPLC detection of MPT sulfoxide at 240 nm", "procedure": "Examples of particular variants of polypeptides of the invention include polypeptide of SEQ ID NO: 2 and SEQ ID NO: 4. […] This enzyme assay represents a single known method for the detemination of enzyme activity of various FMOs. Briefly, the methyl-p-tolyl (MPT) S-oxidase activity of the expressed variants of the polypeptide was assayed as a measure of FMO function. […] Incubations included 25 ug of Sf-9 cell (containing the polypeptide) microsomal protein 1 mM NADPH, and 0.1 M tricine. Incubations were started by the addition of MPTS and were conducted at 37° C. for at least 10 minutes. Following termination of the incubation, the supernatant was analyzed by high performance liquid chromatography and the MPT sulfoxide product was detected by absorbance at 240 nm and quantitated using an authentic standard of the sulfoxide metabolite.\nAn achiral assay method was conducted according to the data sheets provided by Gentest, with some modifications. Based on preliminary determinations of the linearity of metabolite formation with protein concentration and incubation time, incubation conditions were established using 50 μg (tissue microsomes) or 25 μg (Sf-9 cell microsomes) protein, 1 mM NADPH, and 0.1 M tricine in a total volume of 0.25 ml. Samples were incubated for 3 min at 37° C. followed by the addition of substrate (in 1% methanol) to start the reaction. Incubations were terminated after 10 minutes by the addition of 50 μl of acetonitrile, and samples were centrifuged to precipitate protein. The supernatant was analyzed by HPLC, using a 4.6 ×250 mm 5 micron C18 analytical column (Luna™C18(2), Phenomenex, Torrance Calif.) and a 1 ml/min gradient elution of 40:60/methanol:water to 60:40/methanol/water over 8 minutes, followed by substrate elution with 95% methanol. The MPT sulfoxide product was detected by absorbance at 240 nm and quantitated using the authentic standard. Imipramine N-oxidation was measured by substrate-dependent oxidation of NADPH at 340 nm Wyatt et al., 1998, using 25-50 μg of microsomal protein in a total volume of 750 μl."}
{"molecule": "B1", "enzyme activity (MPT S-oxidase activity as a measure of FMO function)": "inactive"}
{"molecule": "B2", "enzyme activity (MPT S-oxidase activity as a measure of FMO function)": "inactive"}
{"molecule": "B3", "enzyme activity (MPT S-oxidase activity as a measure of FMO function)": "active"}
